According to publication PMC4131848:

Biological target: putative N-acetyltransferase from S. aureus subsp. aureus Mu50 (SaGNAT) (Staphylococcus aureus subsp. aureus Mu50)
Test: SEC; Superdex 200, 50 mM Tris pH 8.0, 125 mM NaCl; elution compared with theoretical elution volumes for monomer, dimer and trimer

Substance “putative N-acetyltransferase from S. aureus subsp. aureus Mu50 (SaGNAT) (enzyme)” has a stoichiometry N of 2.
